One assay concerns the target T1, human SLITRK1 (human, UniProt Q96PX8 18-622, limits assumed).
T1 construct: The method text describes only the SLITRK6 ECD-his construct; also called Hu SLITRK1
T1 sequence (looked up): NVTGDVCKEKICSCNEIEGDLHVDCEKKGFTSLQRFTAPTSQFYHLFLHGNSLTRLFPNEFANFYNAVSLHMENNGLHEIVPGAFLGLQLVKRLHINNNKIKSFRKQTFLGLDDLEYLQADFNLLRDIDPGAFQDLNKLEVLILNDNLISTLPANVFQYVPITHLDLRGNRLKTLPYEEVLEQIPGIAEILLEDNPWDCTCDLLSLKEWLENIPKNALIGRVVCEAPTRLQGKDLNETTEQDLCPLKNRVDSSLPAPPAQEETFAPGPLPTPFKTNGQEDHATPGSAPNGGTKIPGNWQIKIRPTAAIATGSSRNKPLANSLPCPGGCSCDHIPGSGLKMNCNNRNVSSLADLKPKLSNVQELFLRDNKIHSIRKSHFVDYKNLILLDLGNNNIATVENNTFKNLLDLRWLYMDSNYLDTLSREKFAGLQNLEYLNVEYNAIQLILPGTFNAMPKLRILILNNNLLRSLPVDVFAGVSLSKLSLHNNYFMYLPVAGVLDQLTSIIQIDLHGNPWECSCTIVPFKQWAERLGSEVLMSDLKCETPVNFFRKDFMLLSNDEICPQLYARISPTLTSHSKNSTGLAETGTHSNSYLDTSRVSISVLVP
Description: BLI, antigen on anti-his tips.

The target in a further assay is T2, rat SLITRK6 (rat, UniProt D3ZP44 27-607).
T2 construct: extracellular domain; not shown: his tag
Description: BLI, antigen on anti-his tips.

The target of another assay is T3, human SLITRK4 (human, UniProt Q8IW52 19-618, limits assumed).
T3 construct: The method text describes only the SLITRK6 ECD-his construct; also called Hu SLITRK4
T3 sequence (looked up): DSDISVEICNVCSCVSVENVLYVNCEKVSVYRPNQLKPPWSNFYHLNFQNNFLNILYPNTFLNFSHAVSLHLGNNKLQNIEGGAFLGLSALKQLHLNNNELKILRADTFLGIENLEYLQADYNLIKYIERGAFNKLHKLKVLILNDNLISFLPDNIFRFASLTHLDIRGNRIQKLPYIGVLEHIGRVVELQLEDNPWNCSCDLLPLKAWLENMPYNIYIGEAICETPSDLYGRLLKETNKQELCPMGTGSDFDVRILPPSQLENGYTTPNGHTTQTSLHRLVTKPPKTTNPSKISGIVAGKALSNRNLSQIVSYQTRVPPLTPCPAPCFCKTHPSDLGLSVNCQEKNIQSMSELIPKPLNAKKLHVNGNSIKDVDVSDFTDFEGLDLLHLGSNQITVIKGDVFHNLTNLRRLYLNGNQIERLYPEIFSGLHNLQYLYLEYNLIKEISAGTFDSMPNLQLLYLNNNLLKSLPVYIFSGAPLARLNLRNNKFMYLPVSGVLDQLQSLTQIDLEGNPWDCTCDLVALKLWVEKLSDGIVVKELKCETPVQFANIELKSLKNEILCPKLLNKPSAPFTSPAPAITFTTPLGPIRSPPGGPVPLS
The assay can be described thus: BLI, antigen on anti-his tips.

Assay [1] deals with T4, human SLITRK6 on cells (human, UniProt Q9H5Y7 27-841).
T4 construct: whole, on cells
The assay can be described thus: flow cytometry on 293F-huSLITRK6 cells, PE-conjugated anti-human Fc. For orientation: Flow cytometry measures light scatter and fluorescence of single cells or particles in a stream.
Description: (§1) Specifically, cells were incubated with 50 μL of mAbs or ADCs in series dilutions in PBS containing 1% BSA at 4° C. for 30 min. The cells were washed twice with PBS containing 1% BSA, stained with PE-conjugated anti human Fc in PBS containing 1% BSA and then incubated at 4° C. for 20 min. After that the cells were washed twice with PBS and analyzed by a flow cytometer.

Assay [2] concerns the target T4, human SLITRK6 on cells. Description: flow cytometry on SW780 cells, PE-conjugated anti-human Fc.
Description: (§2) The binding activity of mAbs and ADCs was evaluated by flow cytometer (Beckman, Cytoflex). Specifically, cells were incubated with 50 μL of mAbs or ADCs in series dilutions in PBS containing 1% BSA at 4° C. for 30 min. The cells were washed twice with PBS containing 1% BSA, stained with PE-conjugated anti human Fc in PBS containing 1% BSA and then incubated at 4° C. for 20 min. After that the cells were washed twice with PBS and analyzed by a flow cytometer.
Assay [3] concerns the target T4, human SLITRK6 on cells. The assay can be described thus: flow cytometry on KYSE-410 cells, PE-conjugated anti-human Fc.
Description: as §1
Assay [4] concerns the target T4, human SLITRK6 on cells. Description: flow cytometry on RT4 cells, PE-conjugated anti-human Fc.
Description: as §1
Assay [5] has as its target T4, human SLITRK6 on cells. Description: flow cytometry on KYSE-30 cells, PE-conjugated anti-human Fc.
Description: as §1
Assay [6] addresses T4, human SLITRK6 on cells. The assay can be described thus: flow cytometry on SW780 cells, PE-conjugated anti-human Fc. This is another data set of the same source.
Description: as §1
The target of assay [7] is T4, human SLITRK6 on cells. Description: flow cytometry on CHP-212 cells, PE-conjugated anti-human Fc.
Description: as §1
Assay [8] has as its target T5, human SLITRK6 extracellular domain linked to his tag (human, UniProt Q9H5Y7 27-608).
T5 construct: extracellular domain; also called huSLITRK6; Hu SLITRK6; not shown: his tag
The assay can be described thus: BLI; antigen-his on anti-his tips, antibody or ADC as analyte; 1:1 fit. A general note: BLI is a label-free optical method that tracks binding on a fibre tip over time.

Assay [9] addresses T6, cynomolgus monkey SLITRK6 extracellular domain linked to his tag (cynomolgus monkey, UniProt G7PVK4 27-608).
T6 construct: extracellular domain; also called cynoSLITRK6; Cyno SLITRK6; not shown: his tag
Described as above.

In the next assay the target is T7, mouse SLITRK6 (mouse, UniProt Q8C110 23-609).
T7 construct: extracellular domain; also called Mu SLITRK6; not shown: his tag
T7 sequence (Q8C110 23-609): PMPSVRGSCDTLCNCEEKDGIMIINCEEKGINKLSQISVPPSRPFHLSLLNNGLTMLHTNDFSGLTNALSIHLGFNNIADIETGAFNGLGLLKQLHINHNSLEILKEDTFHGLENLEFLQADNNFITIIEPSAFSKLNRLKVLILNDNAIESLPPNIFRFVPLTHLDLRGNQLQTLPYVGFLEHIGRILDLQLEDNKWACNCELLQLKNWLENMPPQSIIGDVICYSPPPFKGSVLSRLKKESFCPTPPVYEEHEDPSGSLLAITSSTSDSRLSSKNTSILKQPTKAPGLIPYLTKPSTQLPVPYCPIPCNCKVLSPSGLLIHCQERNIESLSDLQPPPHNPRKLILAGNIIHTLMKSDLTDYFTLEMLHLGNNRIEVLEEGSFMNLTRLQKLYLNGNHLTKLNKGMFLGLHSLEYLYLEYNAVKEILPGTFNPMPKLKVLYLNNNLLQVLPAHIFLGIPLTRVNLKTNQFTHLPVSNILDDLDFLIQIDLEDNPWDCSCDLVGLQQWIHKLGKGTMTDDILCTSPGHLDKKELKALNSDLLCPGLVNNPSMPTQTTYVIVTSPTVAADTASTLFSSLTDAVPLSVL
The description is as above.

The target in assay [10] is T4, human SLITRK6 on cells. Description: flow cytometry on RT112/84 cells, PE-conjugated anti-human Fc.
Description: as §1
Assay [11] deals with T4, human SLITRK6 on cells. The assay can be described thus: flow cytometry on RT4 cells, PE-conjugated anti-human Fc. This is another data set of the same source.
Description: as §2

Description for human SLITRK1: (§3) Binding kinetic of antibody-antigen was characterized by the bio-layer interferometry (BLI). 100 nM of SLITRK6′ extracellular domain linked to his tag was immobilized on anti-his biosensor tips (Fortebio). The sensors were rinsed with the buffer (50 mM Tris-AcOH, pH 6 or 7.5, 0.05% v/v surfactant P20) for 10 min to remove the unbound molecules, then dipped in the antibody solutions at different concentrations for 180 seconds and interspersed by a rinsing step in the buffer solution for 300 seconds. Binding affinity was calculated using ForteBio Data Acquisition 6.3 software (ForteBio) and was derived by fitting the kinetic data to a 1:1 Langmuir binding model utilizing global fitting algorithms. The dissociation or association equilibrium constant KD was calculated from the binding rate constants as KD=koff/kₒₙ (where koff and kₒₙ represent the dissociation kinetic constant and the association kinetic constant, respectively).
Description for human SLITRK4: as §3
Description for mouse SLITRK6: as §3
Description for rat SLITRK6: as §3

B1: hu1H2-03 with a LALA mutation (hu1H2-03-LALA) (antibody, V domains shown)
VH: EVQLVESGGGLVQPGGSLRLSCAASGFTFSDYGLHWVRQAPGKGLEWVSYISSGSSTVYFADTLKGRFTISRDNAKNSLYLQMNSLRAEDTAVYYCTRGTWYFDVWGRGTLVTVSS
VL: DIQMTQSPSSLSASVGDRVTITCRTSENIHSYLAWYQQKPGKSPQLLVYNAKTLADGVPSRFSGSGSGTDYTLTISSLQPEDFGTFYCQHFWTTSRTFGGGTKVEIK
For orientation: EC50 (read off the curve) means the concentration that produces a half-maximal response. In general, Kd refers to the concentration at which binding is half-saturated. For the molecule B1, the binding result with human SLITRK1, with rat SLITRK6 and in the assay with human SLITRK4 was “no binding” throughout. Besides, the concentration giving a half-maximal response (EC50 (read off the curve)) with human SLITRK6 on cells [1] was approximately 900 pM; with human SLITRK6 on cells [2] it was approximately 300 pM; with human SLITRK6 on cells [3], approximately 200 pM; with human SLITRK6 on cells [4], approximately 200 pM; with human SLITRK6 on cells [5], approximately 200 pM; with human SLITRK6 on cells [6], approximately 300 pM. The “EC50 (read off the curve)” value was approximately 200 pM with human SLITRK6 on cells [7], approximately 200 pM in the assay with human SLITRK6 on cells [10] and approximately 300 pM in the assay with human SLITRK6 on cells [11]. For the same molecule, the Kd in [8] worked out at 140 pM; in assay [9], 250 pM; with mouse SLITRK6, 590 pM.

B2: hu1H2-03-LD038 (antibody, V domains shown)
VH: EVQLVESGGGLVQPGGSLRLSCAASGFTFSDYGLHWVRQAPGKGLEWVSYISSGSSTVYFADTLKGRFTISRDNAKNSLYLQMNSLRAEDTAVYYCTRGTWYFDVWGRGTLVTVSS
VL: DIQMTQSPSSLSASVGDRVTITCRTSENIHSYLAWYQQKPGKSPQLLVYNAKTLADGVPSRFSGSGSGTDYTLTISSLQPEDFGTFYCQHFWTTSRTFGGGTKVEIK
modifications: drug-linker LD038 conjugated to the antibody; positions not given
notes: also called hu1H2-03-LALA-LD038; hu1H2-03-LD038 (8)
On to B2, for which the binding result with human SLITRK1, with rat SLITRK6 and with human SLITRK4 was “no binding” each time. In addition, the concentration giving a half-maximal response (EC50 (read off the curve)) in the assay with human SLITRK6 on cells [1] was approximately 1000 pM; with human SLITRK6 on cells [3], approximately 200 pM; with human SLITRK6 on cells [4] it was approximately 300 pM; with human SLITRK6 on cells [5] it was approximately 300 pM; in the assay with human SLITRK6 on cells [6], approximately 400 pM; with human SLITRK6 on cells [7], approximately 200 pM. In addition, the concentration for a half-maximal effect (EC50 (read off the curve)) in the assay with human SLITRK6 on cells [10] was approximately 200 pM. Moreover, the equilibrium dissociation constant (Kd) in [8] came out at 80 pM; in assay [9], 210 pM; with mouse SLITRK6, 610 pM.

These data come from US20250296992A1 (Genmab, published 2025).
